Assay results: paper PMC3577348 (Science (New York, N.Y.), 2012)

T1: mini-XWnt8 (C-terminal fragment of XWnt8, residues 248-338) displayed on yeast (Xenopus, UniProt P28026 248-338)
T1 sequence (looked up): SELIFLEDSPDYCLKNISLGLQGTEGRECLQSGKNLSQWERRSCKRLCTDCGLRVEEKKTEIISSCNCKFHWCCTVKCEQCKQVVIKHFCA

B1: human Fz5-CRD (residues 30-150), biotinylated (domain or fragment, UniProt Q13467 30-150, looked up)
chain: APVCQEITVPMCRGIGYNLTHMPNQFNHDTQDEAGLEVHQFWPLVEIQCSPDLRFFLCSMYTPICLPDYHKPLPPCRSVCERAKAGCSPLMRQYGFAWPERMSCDRLPVLGRDAEVLCMDY
modifications: biotin on the BAP-tag (enzymatic, GST-BirA ligase)
B2: mouse Fz8-CRD (residues 32-151), biotinylated (domain or fragment, UniProt Q61091 32-151, looked up)
chain: ELACQEITVPLCKGIGYNYTYMPNQFNHDTQDEAGLEVHQFWPLVEIQCSPDLKFFLCSMYTPICLEDYKKPLPPCRSVCERAKAGCAPLMRQYGFAWPDRMRCDRLPEQGNPDTLCMDY
modifications: biotin on the BAP-tag (enzymatic, GST-BirA ligase)
B3: soluble mini-XWnt8 (residues 248-338) with C-terminal six-histidine tag (domain or fragment, Xenopus, UniProt P28026 248-338, looked up)
chain: T1 sequence (looked up)

How the values were obtained:
[1] = biological target: T1, mini-XWnt8 (C-terminal fragment of …); assay: flow cytometry on cells
[2] = biological target: B2; assay: SPR
[3] = biological target: B1; assay: SPR

percent of yeast stained [1]	Kd [2]	Kd [3]	Binder
~30%			B1
~50%			B2
	~2400 nM	~3500 nM	B3
